{"source": "paper PMC9025068", "about": "“DNA-Binding Properties of a Novel Crenarchaeal Chromatin-Organizing Protein in Sulfolobus acidocaldarius” (Biomolecules, 2022)", "molecules": {"B1": {"name": "Sul12a (natural protein, Sulfolobus acidocaldarius, UniProt Q4JA12 1-107, looked up)", "chain": "MELTPRLQDIISILKEKGGSVNIRDLALQLKISPKTAKGYARELYRLGYIEMDENENMILKRENPENITDLKKTVETHTAEIEALKKEVEFLKEELSRFRGTKKVKV", "notes": "Sul12a of Sulfolobus acidocaldarius, encoded by the 324-bp gene Saci_1012; 107 amino acids, native MW 12.4 kDa (recombinant His-tagged monomer 14.3 kDa); the Saci_1012 coding region was amplified from genomic DNA and cloned in pET-45b(+); The preparation also held lower-MW species without tag (contaminants or degradation products); also called Saci_1012; not shown: His tag, N-terminal, kept"}}, "key": {"[1]": {"tested_on": "Sul12a (Sulfolobus acidocaldarius)", "test": "EMSA", "settings": "KDapp, salmon sperm DNA 25 ug/mL, 20 mM Tris-HCl pH 8.0, 1 mM MgCl2, 0.1 mM DTT, 12.5% glycerol, 50 mM NaCl, 0.4 mM EDTA, 37 C 20 min, 0.1 nM 32P-DNA with 25 ug/mL salmon sperm DNA …"}, "[2]": {"biological_target": "the molecule itself", "test": "SDS-PAGE with western blot; 100 and 250 ug purified Sul12a separated by SDS-PAGE (4-12%), blotted on PVDF, probed with HRP-conjugated anti-polyHistidine antibodies"}}, "data": [{"molecule": "argO promoter region (F3)", "values": [{"measurement": "Kd", "setting": "[1]; F1 + F3 mixture", "value": 3700, "unit": "nM"}]}, {"molecule": "carAB promoter region (F2)", "values": [{"measurement": "Kd", "setting": "[1]; F1 + F2 mixture", "value": 1200, "unit": "nM"}]}, {"molecule": "B1", "values": [{"measurement": "stoichiometry N", "setting": "[2]", "value": 2}]}]}
